Data taken from PMC4949257, “Three CoA Transferases Involved in the Production of Short Chain Fatty Acids in Porphyromonas gingivalis” (Frontiers in Microbiology, 2016).

Experiments:
[1] = substrate: CCCC(=O)SCCNC(=O)CCNC(=O)[C@H](O)C(C)(C)COP(=O)(O)OP(=O)(O)OC[C@H]1O[C@@H](n2cnc3c(N)ncnc32)[C@H](O)[C@@H]1OP(=O)(O)O; test: acetyl-CoA formation, citrate synthase/DTNB A412, secondary plots; format: biochemical, Porphyromonas gingivalis; conditions: co-substrate sodium acetate, 40 mM potassium phosphate pH 8.0, ternary-complex mechanism
Excerpt: acetyl-CoA formation, citrate synthase/DTNB A412, secondary plots on PGN_1341

purified protein = substrate: CC(=O)O; test: purified protein; conditions: co-substrate butyryl-CoA, 40 mM potassium phosphate pH 8.0, ternary-complex mechanism
[2] = substrate: CCCC(=O)SCCNC(=O)CCNC(=O)[C@H](O)C(C)(C)COP(=O)(O)OP(=O)(O)OC[C@H]1O[C@@H](n2cnc3c(N)ncnc32)[C@H](O)[C@@H]1OP(=O)(O)O; test: acetyl-CoA formation, citrate synthase/DTNB A412, secondary plots; format: biochemical, Porphyromonas gingivalis; conditions: co-substrate sodium acetate, 40 mM potassium phosphate pH 8.0, ternary-complex mechanism; remark: listed apart in the source
Excerpt: (§1) acetyl-CoA formation, citrate synthase/DTNB A412, secondary plots on PGN_1888

[3] = substrate: CCC(=O)SCCNC(=O)CCNC(=O)[C@H](O)C(C)(C)COP(=O)(O)OP(=O)(O)OC[C@H]1O[C@@H](n2cnc3c(N)ncnc32)[C@H](O)[C@@H]1OP(=O)(O)O; test: as above; format: biochemical, Porphyromonas gingivalis; conditions: co-substrate sodium acetate, 40 mM potassium phosphate pH 8.0, ternary-complex mechanism
Excerpt: as §1

[4] = substrate: CCCC(=O)SCCNC(=O)CCNC(=O)[C@H](O)C(C)(C)COP(=O)(O)OP(=O)(O)OC[C@H]1O[C@@H](n2cnc3c(N)ncnc32)[C@H](O)[C@@H]1OP(=O)(O)O; test: as above; format: biochemical, Porphyromonas gingivalis; conditions: co-substrate sodium acetate, 40 mM potassium phosphate pH 8.0, ternary-complex mechanism; remark: listed apart in the source
Excerpt: (§2) acetyl-CoA formation, citrate synthase/DTNB A412, secondary plots on PGN_0725

[5] = substrate: CCC(=O)SCCNC(=O)CCNC(=O)[C@H](O)C(C)(C)COP(=O)(O)OP(=O)(O)OC[C@H]1O[C@@H](n2cnc3c(N)ncnc32)[C@H](O)[C@@H]1OP(=O)(O)O; test: as above; format: biochemical, Porphyromonas gingivalis; conditions: co-substrate sodium acetate, 40 mM potassium phosphate pH 8.0, ternary-complex mechanism; remark: listed apart in the source
Excerpt: as §2

B1: PGN_1341 (Porphyromonas gingivalis ATCC 33277) (protein)
chain: MALRFITAEEAAEFVHHNDNVGFSGFTPAGNPKVVPAAIAKRAIAEHEKGNPFKIGMFTGASTGARLDGVLAQADAVKFRTPYQSNKDLRNLINNGSTSYFDLHLSTLAQDLRYGFYGKVDVAIIEVADVTEDGKILPTTGVGILPTICRLADRIIVELNDKHPKEIMGMHDLCEPLDPPARRELPVYTPSDRIGKPYVQVDPAKIVGVVRTSEPNDESDFAPLDPVTQAIGDNVAAFLVSEMKAGRIPKDFLPLQSGVGNVANAVLGALGDNPDIPAFNMYTEVIQDAVIALMKKGRIKFASGCSLSVSRSVIQDIYANLDFFKDKILLRPQEYSNNPEIVRRLGVITINTALEADIFGNINSTHVSGTRMMNGIGGSGDFTRNSYVSIFTTPSVMKDGKISSFVPMVAHHDHSEHSVKVIISEWGVADLRGKNPRERAHEIIDKCVHPDYRPLLRQYLELGVKGQTPQNLDCCFAFHQELAKSGDMRNVRWEDYMK
notes: recombinant full-length, pGEX-6P-1 (GST vector) in E. coli; 498 aa
[1]
  Km: 610 ± 40 µM
  kcat: 24 ± 0.3 s⁻¹
Purified protein
  Km: 26000 ± 2800 µM
  kcat: 24 ± 0.3 s⁻¹

B2: PGN_1888 (Porphyromonas gingivalis ATCC 33277) (protein)
chain: MQWQELYRQRVCSADEAVVDSLKPGTKVVFGHAAAAPVRFSQAMYRQRERLENITVFHMLYFGDAPHLAPEMRSHVHPTLNFLEGNSRPASRDRRVDFIPCHFHEVPELFRQGFFPLDVAVVQVSTPNEEGYCSFGVSCDYTKAAAECAPVVVAEVNKQMPFIGGENLIHISNLTHIIEVDEPIAEVLPPAISDLELRIGQNCASLIKDGDTLQLGIGGIPDAVLRALEGHKDLGIHTEMFTDGVMRMIRKGIINGKKKTLHPEKVVTSLIFGSKELYDFVNNNPVIECYPVDYINNPDVIGKNDRMVSINSCLEMDLMGQAASESIGYEQFSGSGGQVDFLRGAKRSKGGISIMAFPSTAKKGTESRIVPILKEGACVTTGRNEVDYVVTEYGVARLRGATLRQRAEALTAIAHPDFRPALEEEIRRRFE
notes: recombinant full-length, pGEX-6P-1 (GST vector) in E. coli; 431 aa
[2]
  Km: 920 ± 70 µM
  kcat: 254 ± 10 s⁻¹
[3]
  Km: 23 ± 4.4 µM
  kcat: 1374 ± 477 s⁻¹
Purified protein
  Km: 33000 ± 5300 µM
  kcat: 254 ± 10 s⁻¹

B3: PGN_0725 (Porphyromonas gingivalis ATCC 33277) (protein)
chain: MKDVLAEYASRIVSAEEAVKHIKNGERVALSHAAGVPQSCVDALVQQADLFQNVEIYHMLCLGEGKYMAPEMAPHFRHITNFVGGNSRKAVEENRADFIPVFFYEVPSMIRKDILHIDVAIVQLSMPDENGYCSFGVSCDYSKPAAESAHLVIGEINRQMPYVHGDNLIHISKLDYIVMADYPIYSLAKPKIGEVEEAIGRNCAELIEDGATLQLGIGAIPDAALLFLKDKKDLGIHTEMFSDGVVELVRSGVITGKKKTLHPGKMVATFLMGSEDVYHFIDKNPDVELYPVDYVNDPRVIAQNDNMVSINSCIEIDLMGQVVSECIGSKQFSGTGGQVDYVRGASWSKNGKSIMAIPSTAKNGTASRIVPIIAEGAAVTTLRNEVDYVVTEYGIAQLKGKSLRQRAEALIAIAHPDFREELTEHLRKRFG
notes: as for B2
[4]
  Km: 520 ± 10 µM
  kcat: 560 ± 4.1 s⁻¹
[5]
  Km: 108 ± 47 µM
  kcat: 533 ± 31 s⁻¹
Purified protein
  Km: 16000 ± 1800 µM
  kcat: 560 ± 4.1 s⁻¹
